In paper PMC12867151:

Target: human immune complexes (ICs): heat-aggregated human IgG (human)

neutrophil adhesion on IC-coated microcapillaries with adhered platelets at 2 dyn/cm^2; neutrophils preincubated with a blocking antibody against FcγRIIA; inhibition against the isotype control (% inhibition of neutrophil adhesion) | neutrophil adhesion on IC-coated microcapillaries with adhered platelets at 2 dyn/cm^2; neutrophils preincubated with a blocking antibody against FcγRIIIB; inhibition against the isotype control (% inhibition of neutrophil adhesion) | Substance
86.3 |  | Fcγ receptor 2a (FcγRIIA), human, on human platelets (from UniProt P12318 34-317)
 | 63.8 | FcγRIIIB, human, on neutrophils (from UniProt O75015 17-200) (receptor)
